Laboratory results published in doi:10.1101/2024.04.26.591305 (2024).

Target: α-skeletal muscle actin filaments (rabbit) (rabbit, UniProt P68135 1-377)

VADLIKKFESISKEE (domain or fragment) [L45 (msfGFPΔC9-LifeactΔN2)]
Kd: 4.5 µM

MGVADLIKKFESI (domain or fragment) [L22 (LifeactΔC4-msfGFPΔN7)]
Kd: 11.3 µM

B1: U20 (msfGFPΔC10-Utr28-222) (domain or fragment)
chain: EHNDVQKKTFTKWINARFSKSGKPPINDMFTDLKDGRKLLDLLEGLTGTSLPKERGSTRVHALNNVNRVLQVLHQNNVELVNIGGTDIVDGNHKLTLGLLWSIILHWQVKDVMKDVMSDLQQTNSEKILLSWVRQTTRPYSQVNVLNFTTSWTDGLAFNAVLHRHKPDLFSWDKVVKMSPIERLEHAFSKAQTYL
Kd: 13.2 µM
